± gives the uncertainty stated by the source.
Assay: self-splicing fitness, log relative to wild type (ln ratio); higher = more splicing; Tetrahymena group I intron in knt gene, E. coli kanamycin selection, DiMSum; sequences stand for … in CUCUCU…GGAGGGAAAAGUUAUCAGGCAUGCACCUGGUAGCUAGUCUUUAAACCAAUAGAUUGCAUCGGUUUAAAAGGCAAGACCGUCAAAUUGCGGGAAAGGGGUCAACAGCCGUUCAGUACCAAGUCUCAGGGGAAACUUUGAGAUGGCCUUGCAAAGGGUAUGGUAAUAAGCUGACGGACAUGGUCCUAACCACGCAGCCAAGUCCUAAGUCAACAGAUCUUCUGUUGAUAUGGAUGCAGUUCACAGACUAAAUGUCGGUCGGGGAAGAUGUAUUCUUCUCAUAAGAUAUAGUCGGACCUCUCCUUAAUGGGAGCUAGCGGAUGAAGUGAUGCAACACUGGAGCCGCUGGGAACUAAUUUGUAUGCGAAAGUAUAUUGAUUAGUUUUGGAGUACUCGUGGUCG
Method in brief: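 Six replicate transformations of E. coli BL21(DE3) with a pET-22b(+) library were grown overnight at 37°C or 30°C. The library randomised all eight P1ex-region intron nucleotides, the intron lying in the knt kanamycin-resistance gene, and plates were LB agar with or without 25 μg/mL kanamycin plus 100 μg/mL carbenicillin, 50 μM IPTG and 0.2% rhamnose. Pooled colonies were amplicon-sequenced on an Illumina HiSeq 2500, and fitness is the DiMSum error-weighted combination of wild-type-normalised replicate fold changes, kanamycin versus none.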

AAGAAGCAAUAUUACGCUGU
self-splicing fitness (ln) (30 °C): -2.63 ± 0.13 | self-splicing fitness (ln) (37 °C): -1.28 ± 0.12

AAGUAGCAAUAUUACGUCCG
self-splicing fitness (ln) (30 °C): -1.53 ± 0.14 | self-splicing fitness (ln) (37 °C): -1.93 ± 0.14

GAGAAGCAAUAUUACGCUUU
self-splicing fitness (ln) (30 °C): -3.35 ± 0.14 | self-splicing fitness (ln) (37 °C): -2.76 ± 0.14

GACAAGCAAUAUUACGAUUU
self-splicing fitness (ln) (30 °C): -0.222 ± 0.063 | self-splicing fitness (ln) (37 °C): 0.406 ± 0.081

CCAAAGCAAUAUUACGAGAU
self-splicing fitness (ln) (30 °C): -3.13 ± 0.2 | self-splicing fitness (ln) (37 °C): -2.5 ± 0.23

UGGUAGCAAUAUUACGAGUU
self-splicing fitness (ln) (30 °C): -2.91 ± 0.24 | self-splicing fitness (ln) (37 °C): -2.75 ± 0.24

GGACAGCAAUAUUACGUUAG
self-splicing fitness (ln) (30 °C): -1.24 ± 0.066 | self-splicing fitness (ln) (37 °C): -0.49 ± 0.085

UCAGAGCAAUAUUACGUGCG
self-splicing fitness (ln) (30 °C): -2.9 ± 0.23 | self-splicing fitness (ln) (37 °C): -0.826 ± 0.16

UCUAAGCAAUAUUACGGGGA
self-splicing fitness (ln) (30 °C): -1.76 ± 0.11 | self-splicing fitness (ln) (37 °C): -0.821 ± 0.12

UCCUAGCAAUAUUACGGAAC
self-splicing fitness (ln) (37 °C): -2.69 ± 0.24

ACAGAGCAAUAUUACGGCCU
self-splicing fitness (ln) (30 °C): -3.08 ± 0.29 | self-splicing fitness (ln) (37 °C): -2.6 ± 0.25

AGGGAGCAAUAUUACGCGUG
self-splicing fitness (ln) (30 °C): -2.4 ± 0.15 | self-splicing fitness (ln) (37 °C): -2.35 ± 0.23

GGUGAGCAAUAUUACGGCUC
self-splicing fitness (ln) (30 °C): -1.94 ± 0.24 | self-splicing fitness (ln) (37 °C): -0.104 ± 0.3

ACUAAGCAAUAUUACGAUGA
self-splicing fitness (ln) (30 °C): -0.267 ± 0.068 | self-splicing fitness (ln) (37 °C): -0.253 ± 0.076

CAGCAGCAAUAUUACGGCAC
self-splicing fitness (ln) (30 °C): -3.25 ± 0.15 | self-splicing fitness (ln) (37 °C): -0.851 ± 0.17

UAAGAGCAAUAUUACGUGGC
self-splicing fitness (ln) (30 °C): -4.44 ± 0.27 | self-splicing fitness (ln) (37 °C): -2.2 ± 0.2

GUCAAGCAAUAUUACGUUUC
self-splicing fitness (ln) (30 °C): -2.79 ± 0.13 | self-splicing fitness (ln) (37 °C): -2.39 ± 0.16

UACUAGCAAUAUUACGAGGC
self-splicing fitness (ln) (30 °C): -3.01 ± 0.17 | self-splicing fitness (ln) (37 °C): -2.27 ± 0.23

AGUCAGCAAUAUUACGAUCG
self-splicing fitness (ln) (30 °C): -0.601 ± 0.091 | self-splicing fitness (ln) (37 °C): 0.358 ± 0.14

CAAUAGCAAUAUUACGCUUG
self-splicing fitness (ln) (30 °C): -2.63 ± 0.14 | self-splicing fitness (ln) (37 °C): -2.01 ± 0.16

AAAGAGCAAUAUUACGCGAG
self-splicing fitness (ln) (30 °C): -1.87 ± 0.12 | self-splicing fitness (ln) (37 °C): -1.58 ± 0.13

CGGCAGCAAUAUUACGAGGG
self-splicing fitness (ln) (30 °C): -2.39 ± 0.39 | self-splicing fitness (ln) (37 °C): -2.15 ± 0.33

ACCAAGCAAUAUUACGGGAU
self-splicing fitness (ln) (30 °C): -2.53 ± 0.088 | self-splicing fitness (ln) (37 °C): -1.39 ± 0.083

CGGGAGCAAUAUUACGGUAA
self-splicing fitness (ln) (30 °C): -3.01 ± 0.34 | self-splicing fitness (ln) (37 °C): -1.13 ± 0.21

GGGCAGCAAUAUUACGCAUC
self-splicing fitness (ln) (30 °C): -2.25 ± 0.41 | self-splicing fitness (ln) (37 °C): -0.733 ± 0.2

AUUGAGCAAUAUUACGGAAA
self-splicing fitness (ln) (30 °C): -2.56 ± 0.3 | self-splicing fitness (ln) (37 °C): -1.7 ± 0.25

CCCAAGCAAUAUUACGGUCC
self-splicing fitness (ln) (30 °C): -2.66 ± 0.15 | self-splicing fitness (ln) (37 °C): -2.65 ± 0.21

CAAGAGCAAUAUUACGCUCC
self-splicing fitness (ln) (30 °C): -2.23 ± 0.44

CACGAGCAAUAUUACGGGGC
self-splicing fitness (ln) (30 °C): -3.02 ± 0.14 | self-splicing fitness (ln) (37 °C): -2.42 ± 0.19

GAAUAGCAAUAUUACGGCGU
self-splicing fitness (ln) (30 °C): -0.554 ± 0.15 | self-splicing fitness (ln) (37 °C): 0.178 ± 0.16

CACAAGCAAUAUUACGCCAU
self-splicing fitness (ln) (30 °C): -4 ± 0.23 | self-splicing fitness (ln) (37 °C): -3.48 ± 0.25

UCGUAGCAAUAUUACGGUAU
self-splicing fitness (ln) (30 °C): -2.96 ± 0.22 | self-splicing fitness (ln) (37 °C): -1.93 ± 0.28

CUAUAGCAAUAUUACGCUCG
self-splicing fitness (ln) (30 °C): -1.74 ± 0.12 | self-splicing fitness (ln) (37 °C): -0.741 ± 0.14

CAGAAGCAAUAUUACGCGAC
self-splicing fitness (ln) (37 °C): -2.94 ± 0.32

CAUAAGCAAUAUUACGCUGG
self-splicing fitness (ln) (30 °C): -2.08 ± 0.18 | self-splicing fitness (ln) (37 °C): -2.03 ± 0.17

UCCAAGCAAUAUUACGAAUA
self-splicing fitness (ln) (30 °C): -2.4 ± 0.16 | self-splicing fitness (ln) (37 °C): -1.13 ± 0.097

GUUUAGCAAUAUUACGUAUC
self-splicing fitness (ln) (30 °C): -0.904 ± 0.28 | self-splicing fitness (ln) (37 °C): -0.233 ± 0.36

GGACAGCAAUAUUACGAUUA
self-splicing fitness (ln) (30 °C): -0.666 ± 0.13 | self-splicing fitness (ln) (37 °C): -0.225 ± 0.12

UGAUAGCAAUAUUACGCUUG
self-splicing fitness (ln) (30 °C): -0.924 ± 0.091 | self-splicing fitness (ln) (37 °C): 0.0889 ± 0.14

CGUGAGCAAUAUUACGGGUG
self-splicing fitness (ln) (30 °C): -0.878 ± 0.067 | self-splicing fitness (ln) (37 °C): -0.658 ± 0.078

CUUUAGCAAUAUUACGAAUA
self-splicing fitness (ln) (30 °C): -3.48 ± 0.48

UUACAGCAAUAUUACGUUGU
self-splicing fitness (ln) (30 °C): -2.98 ± 0.13 | self-splicing fitness (ln) (37 °C): -2.57 ± 0.16

AAUGAGCAAUAUUACGAAAC
self-splicing fitness (ln) (37 °C): -1.27 ± 0.32

— the supplement of paper PMC7877785
